Measured values as given in US20060259987A1 (UNIVERSITY OF UTAH RESEARCH FOUNDATION, published 2006).
Where a chain is given by its changes, count along the chain named. Names and notes keep the numbering of the source. Each block holds one binder with its values, some of them ahead of it.

Assays:
factor Xa [1] = target: T1, factor Xa (human, UniProt P00742 41-179; P00742 235-488, limits assumed); test: Kapp fXa/hep relative to plasma.at3
T1 construct: also called fXa; human factor Xa

factor Xa [2] = target: T1, factor Xa; test: Kapp fXa/prog relative to plasma.at3
thrombin [3] = target: T2, thrombin (human, UniProt P00734 328-622); test: thrombin prog: pseudo-first-order loss of chromogenic activity, no heparin, 25 C
Protocol: (§1) Polybrene was added with the chromogenic substrate to quench the heparin dependent reaction. […] This was plotted against the heparin concentration to calculate the second-order rate constant for the inhibition by the heparin-ATIII complex, (Kₕₑₚ) from the equation Kobs=Kₕₑₚ[H]ₒ([AT]ₒ/[AT]ₒ+Kd)+Kuncat[AT]ₒ

thrombin [4] = target: T2, thrombin; test: Kapp IIa/prog relative to plasma.at3
factor Xa [5] = target: T1, factor Xa; test: cell-based or functional assay
thrombin [6] = target: T2, thrombin; test: cell-based or functional assay
factor Xa [7] = target: T1, factor Xa; test: factor Xa prog: pseudo-first-order loss of chromogenic activity, no heparin, 25 C
Protocol: as §1

thrombin [8] = target: T2, thrombin; test: Kapp IIa/hep relative to plasma.at3
[9] = target: T3, human neutrophil elastase (human, UniProt P08246 30-247, limits assumed); test: cell-based or functional assay
T3 sequence (looked up): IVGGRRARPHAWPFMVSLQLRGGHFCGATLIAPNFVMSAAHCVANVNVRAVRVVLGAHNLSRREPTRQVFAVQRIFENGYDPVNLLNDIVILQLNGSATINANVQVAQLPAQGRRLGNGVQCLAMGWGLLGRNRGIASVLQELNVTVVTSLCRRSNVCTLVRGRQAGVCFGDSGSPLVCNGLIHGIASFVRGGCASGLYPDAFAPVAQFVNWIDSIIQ

human factor Xa [10] = target: T4, human factor Xa (human, UniProt P00742 41-179; P00742 235-488, limits assumed); test: residual enzyme activity against time, pseudo-first-order, with heparin
T4 construct: the active enzyme is a two-chain form of it; also called fXa
T4 sequence (P00742 41-179 limits assumed, chain 1 of 2): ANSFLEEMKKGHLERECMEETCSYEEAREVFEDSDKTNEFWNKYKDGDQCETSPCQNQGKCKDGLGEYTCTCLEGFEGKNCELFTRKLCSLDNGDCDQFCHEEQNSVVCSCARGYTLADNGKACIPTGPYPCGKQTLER
T4 sequence (P00742 235-488 limits assumed, chain 2 of 2): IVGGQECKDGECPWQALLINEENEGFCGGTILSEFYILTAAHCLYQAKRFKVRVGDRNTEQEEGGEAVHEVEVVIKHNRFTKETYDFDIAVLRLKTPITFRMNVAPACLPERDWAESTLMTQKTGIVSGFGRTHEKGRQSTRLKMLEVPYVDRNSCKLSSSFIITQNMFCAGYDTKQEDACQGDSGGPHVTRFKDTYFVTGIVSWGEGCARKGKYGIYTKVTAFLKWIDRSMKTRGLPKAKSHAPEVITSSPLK
Protocol: Polybrene was added with the chromogenic substrate to quench the heparin dependent reaction. The observed pseudo-first-order rate constants were calculated for each heparin (1 nM-5 nM) concentration from the slope of the log of residual proteinase activity vs. time. This was plotted against the heparin concentration to calculate the second-order rate constant for the inhibition by the heparin-ATIII complex, (Kₕₑₚ) from the equation Kobs=Kₕₑₚ[H]ₒ([AT]ₒ/[AT]ₒ+Kd)+Kuncat[AT]ₒ

human factor Xa [11] = target: T4, human factor Xa; test: residual enzyme activity against time, pseudo-first-order, progressive (no heparin)
human thrombin = human thrombin (human, UniProt P00734 328-622); test: as above

T1 sequence (P00742 41-179 limits assumed, chain 1 of 2): as the sequence (P00742 41-179 limits assumed, chain 1 of 2) above
T1 sequence (P00742 235-488 limits assumed, chain 2 of 2): as the sequence (P00742 235-488 limits assumed, chain 2 of 2) above

Kapp as a percentage of the plasma ATIII value (factor Xa [1]): 52%
Kapp as a percentage of the plasma ATIII value (factor Xa [2]): 86%
kapp (apparent second-order inhibition rate constant) (thrombin [3]): 278 M⁻¹ s⁻¹
Kapp as a percentage of the plasma ATIII value (thrombin [4]): 4%
IC50 fXa/UFH; HCA #3 (factor Xa [5]): 15 nM
IC50 fXa/UFH; HCA #4 (factor Xa [5]): 38 nM
rsd. Xa catG; CA #15; stg1 conc 200 (factor Xa [5]): 0%
rsd. Xa hne; CA #15; stg1 conc 200 (factor Xa [5]): 1%
rsd. Xa no add; CA #15; stg1 conc 200 (factor Xa [5]): 0%
IC50 IIa/UFH; HCA #3 (thrombin [6]): 110 nM
IC50 IIa/UFH; HCA #4 (thrombin [6]): 200 nM
rsd. IIa catG; CA #15; stg1 conc 200 (thrombin [6]): 1%
rsd. IIa hne; CA #15; stg1 conc 200 (thrombin [6]): 21%
rsd. IIa no add; CA #15; stg1 conc 200 (thrombin [6]): 0%
kapp (apparent second-order inhibition rate constant) (factor Xa [7]): 1800 M⁻¹ s⁻¹
Kapp as a percentage of the plasma ATIII value (thrombin [8]): 3%
B1: LEAI.472 (other)
chain: SPVDICTAKPRDIPMNPMCIYRSPEKKATEDEGSEQKIPEATNRRVWELSKANSRFATTFYQHLADSKNDNDNIFLSPLSISTAFAMTKLGACNDTLQQLMEVFKFDTISEKTSDQIHFFFAKLNCRLYRKANKASKLVSANRLFGDKSLTFNETYQDISELVYGAKLQPLDFKENAEQSRAAINKWVSNKTEGRITDVIPSEAINELTVLVLVNTIYFKGLWKSKFSPENTRKELFYKADGESCSASMMYQEGKFRYRRVAEGTQVLELPFKGDDITMVLILPKPEKSLAKVEKELTPEVLQEWLDELEEMMLVVHMPRFRIEDGFSLKEQLQDMGLVDLFSPEKSKLPGIVAEGRDDLYVSDAFHKAFLEVNEEGSEAAASTALEANGRSLNPNRVTFKANRPFLVFIREVPLNTIIFMGRVANPCVK

halflife, min (HNE/hep) [9]: 30.1 min
kapp (apparent second-order inhibition rate constant) (human factor Xa [10]): 298000 M⁻¹ s⁻¹
kapp (apparent second-order inhibition rate constant) (human factor Xa [11]): 1800 M⁻¹ s⁻¹
kapp (apparent second-order inhibition rate constant) (human thrombin): 278 M⁻¹ s⁻¹
B2: LEAI.472 (other)
chain: B1 chain
notes: Recombinant human ATIII variant made in Drosophila S2 cells on the S137A background

halflife, min (HNE/hep) [9]: 25.3 min
kapp (apparent second-order inhibition rate constant) (human factor Xa [10]): 831000 M⁻¹ s⁻¹
kapp (apparent second-order inhibition rate constant) (human factor Xa [11]): 5360 M⁻¹ s⁻¹
kapp (apparent second-order inhibition rate constant) (human thrombin): 2920 M⁻¹ s⁻¹
B3: LEAI.482 (other)
chain: B1 chain with N389H
notes: as for B2

halflife, min (HNE/hep) [9]: 19.9 min
kapp (apparent second-order inhibition rate constant) (human factor Xa [10]): 489000 M⁻¹ s⁻¹
kapp (apparent second-order inhibition rate constant) (human factor Xa [11]): 24100 M⁻¹ s⁻¹
kapp (apparent second-order inhibition rate constant) (human thrombin): 7310 M⁻¹ s⁻¹
B4: LEAI.480 (other)
chain: B1 chain with N389Y
notes: as for B2

Kapp as a percentage of the plasma ATIII value (factor Xa [1]): 192%
Kapp as a percentage of the plasma ATIII value (factor Xa [2]): 457%
kapp (apparent second-order inhibition rate constant) (thrombin [3]): 5280 M⁻¹ s⁻¹
Kapp as a percentage of the plasma ATIII value (thrombin [4]): 75%
kapp (apparent second-order inhibition rate constant) (factor Xa [7]): 9550 M⁻¹ s⁻¹
Kapp as a percentage of the plasma ATIII value (thrombin [8]): 159%
B5: leai(bv) (other, human, UniProt P01008 33-464, looked up)
chain: HGSPVDICTAKPRDIPMNPMCIYRSPEKKATEDEGSEQKIPEATNRRVWELSKANSRFATTFYQHLADSKNDNDNIFLSPLSISTAFAMTKLGACNDTLQQLMEVFKFDTISEKTSDQIHFFFAKLNCRLYRKAAKSSKLVSANRLFGDKSLTFNETYQDISELVYGAKLQPLDFKENAEQSRAAINKWVSNKTEGRITDVIPSEAINELTVLVLVNTIYFKGLWKSKFSPENTRKELFYKADGESCSASMMYQEGKFRYRRVAEGTQVLELPFKGDDITMVLILPKPEKSLAKVEKELTPEVLQEWLDELEEMMLVVHMPRFRIEDGFSLKEQLQDMGLVDLFSPEKSKLPGIVAEGRDDLYVSDAFHKAFLEVNEEGSEAAASTALEAIGRSLNPNRVTFKANRPFLVFIREVPLNTIIFMGRVANPCVK
notes: mature; also called LEAI (parent)
